Measurements as given in patent US20260049138A1 (Chugai, published 2026).
Residue numbers refer to the chain shown, from its start. Numbers in names are those of the source.

B1: CE115HA000 A99K one-arm antibody (antibody, human IgG1, kappa, L234A L235A, N297A, name in Kabat numbering)
heavy: QVQLVESGGGVVQPGRSLRLSCAASGFTFSNAWMHWVRQAPGKGLEWVAQIKAKSNNYATYYAESVKGRFTISRDDSKNSLYLQMNSLKTEDTAVYYCRYVHYGKYYGVDAWGQGTTVTVSSASTKGPSVFPLAPSSKSTSGGTAALGCLVKDYFPEPVTVSWNSGALTSGVHTFPAVLQSSGLYSLSSVVTVPSSSLGTQTYICNVNHKPSNTKVDKKVEPKSCDKTHTCPPCPAPEAAGGPSVFLFPPKPKDTLMISRTPEVTCVVVDVSHEDPEVKFNWYVDGVEVHNAKTKPREEQYASTYRVVSVLTVLHQDWLNGKEYKCKVSNKALPAPIEKTISKAKGQPREPQVYTLPPSRCELTKNQVSLSCAVKGFYPSDIAVEWESNGQPENNYKTTPPVLDSDGSFFLVSKLTVDKSRWQQGNVFSCSVMHEALHNHYTQKSLSLSPDYKDDDDK
chain: EPKSSDKTHTCPPCPAPELLGGPSVFLFPPKPKDTLMISRTPEVTCVVVDVSHEDPEVKFNWYVDGVEVHNAKTKPREEQYNSTYRVVSVLTVLHQDWLNGKEYKCKVSNKALPAPIEKTISKAKGQPREPQVCTLPPSRDELTKNQVSLWCLVKGFYPSDIAVEWESNGQPENNYKTTPPVLDSDGSFFLYSKLTVDKSRWQQGNVFSCSVMHEALHNRYTQKSLSLSP
light: DIVMTQSPLSLPVTPGEPASISCRSSQSLVHSNRNTYLHWYQQKPGQAPRLLIYKVSNRFSGVPDRFSGSGSGTDFTLKISRVEAEDVGVYYCGQGTQVPYTFGQGTKLEIKRTVAAPSVFIFPPSDEQLKSGTASVVCLLNNFYPREAKVQWKVDNALQSGNSQESVTEQDSKDSTYSLSSTLTLSKADYEKHKVYACEVTHQGLSSPVTKSFNRGEC
B2: CE115HA000 A102V one-arm antibody (antibody, human IgG1, kappa, L234A L235A, N297A, name in Kabat numbering)
heavy: B1 heavy with K105A, A111V
chain: B1 chain
light: B1 light
B3: CE115HA000 A102I one-arm antibody (antibody, human IgG1, kappa, L234A L235A, N297A, name in Kabat numbering)
heavy: B1 heavy with K105A, A111I
chain: B1 chain
light: B1 light
B4: CE115HA000 D101A one-arm antibody (antibody, human IgG1, kappa, L234A L235A, N297A, name in Kabat numbering)
heavy: B1 heavy with K105A, D110A
chain: B1 chain
light: B1 light
B5: CE115HA000 A99Y one-arm antibody (antibody, human IgG1, kappa, L234A L235A, N297A, name in Kabat numbering)
heavy: B1 heavy with K105Y
chain: B1 chain
light: B1 light
B6: CE115HA000 A102P one-arm antibody (antibody, human IgG1, kappa, L234A L235A, N297A, name in Kabat numbering)
heavy: B1 heavy with K105A, A111P
chain: B1 chain
light: B1 light
B7: CE115HA000 D73A one-arm antibody (antibody, human IgG1, kappa, L234A L235A, N297A, name in Kabat numbering)
heavy: B1 heavy with D76A, K105A
chain: B1 chain
light: B1 light
B8: CE115HA000 D72A one-arm antibody (antibody, human IgG1, kappa, L234A L235A, N297A, name in Kabat numbering)
heavy: B1 heavy with D75A, K105A
chain: B1 chain
light: B1 light
B9: CE115HA000 A99S one-arm antibody (antibody, human IgG1, kappa, L234A L235A, N297A, name in Kabat numbering)
heavy: B1 heavy with K105S
chain: B1 chain
light: B1 light
B10: CE115HA000 D73R one-arm antibody (antibody, human IgG1, kappa, L234A L235A, N297A, name in Kabat numbering)
heavy: B1 heavy with D76R, K105A
chain: B1 chain
light: B1 light
B11: CE115HA000 D73N one-arm antibody (antibody, human IgG1, kappa, L234A L235A, N297A, name in Kabat numbering)
heavy: B1 heavy with D76N, K105A
chain: B1 chain
light: B1 light
B12: CE115HA000 A99T one-arm antibody (antibody, human IgG1, kappa, L234A L235A, N297A, name in Kabat numbering)
heavy: B1 heavy with K105T
chain: B1 chain
light: B1 light
B13: CE115HA000 D73E one-arm antibody (antibody, human IgG1, kappa, L234A L235A, N297A, name in Kabat numbering)
heavy: B1 heavy with D76E, K105A
chain: B1 chain
light: B1 light
B14: CE115HA000 D72V one-arm antibody (antibody, human IgG1, kappa, L234A L235A, N297A, name in Kabat numbering)
heavy: B1 heavy with D75V, K105A
chain: B1 chain
light: B1 light
B15: CE115HA000 D73K one-arm antibody (antibody, human IgG1, kappa, L234A L235A, N297A, name in Kabat numbering)
heavy: B1 heavy with D76K, K105A
chain: B1 chain
light: B1 light
B16: CE115HA000 A99L one-arm antibody (antibody, human IgG1, kappa, L234A L235A, N297A, name in Kabat numbering)
heavy: B1 heavy with K105L
chain: B1 chain
light: B1 light
B17: CE115HA000 D73T one-arm antibody (antibody, human IgG1, kappa, L234A L235A, N297A, name in Kabat numbering)
heavy: B1 heavy with D76T, K105A
chain: B1 chain
light: B1 light
B18: CE115HA000 A102Y one-arm antibody (antibody, human IgG1, kappa, L234A L235A, N297A, name in Kabat numbering)
heavy: B1 heavy with K105A, A111Y
chain: B1 chain
light: B1 light
B19: CE115HA000 A99Q one-arm antibody (antibody, human IgG1, kappa, L234A L235A, N297A, name in Kabat numbering)
heavy: B1 heavy with K105Q
chain: B1 chain
light: B1 light
B20: CE115HA000 D73G one-arm antibody (antibody, human IgG1, kappa, L234A L235A, N297A, name in Kabat numbering)
heavy: B1 heavy with D76G, K105A
chain: B1 chain
light: B1 light
B21: CE115HA000 D72E one-arm antibody (antibody, human IgG1, kappa, L234A L235A, N297A, name in Kabat numbering)
heavy: B1 heavy with D75E, K105A
chain: B1 chain
light: B1 light

molecular target: T1, CD3ε homodimer protein (human, UniProt P07766 23-126, limits assumed, sulfo-tag or biotin label in the ECL assays; amine-coupled to the chip in SPR); assay: SPR Biacore T200; CD3ε homodimer on CM4 chip;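 further: Single-residue variant antibodies injected as analyte over CD3ε homodimer immobilized by amine coupling, run at 25 °C in HBS-EP+ buffer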
T1 construct: also called human CD3ε homodimer protein; CD3 (CD3ε)
T1 sequence (P07766 23-126 limits assumed): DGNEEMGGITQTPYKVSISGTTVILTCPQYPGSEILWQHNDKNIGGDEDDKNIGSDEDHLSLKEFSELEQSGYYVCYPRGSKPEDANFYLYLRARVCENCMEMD

Row | Binder | ratio of amounts bound Z=Y/X (altered form / CE115HA000)
1 | B1 | 1.48
2 | B2 | 1.43
3 | B3 | 1.48
4 | B4 | 1.26
5 | B5 | 1.59
6 | B6 | 0.14
7 | B7 | 0.83
8 | B8 | 1.41
9 | B9 | 0.82
10 | B10 | 1.04
11 | B11 | 0.94
12 | B12 | 0.84
13 | B13 | 0.73
14 | B14 | 1.43
15 | B15 | 0.87
16 | B16 | 1.13
17 | B17 | 0.63
18 | B18 | 0.91
19 | B19 | 0.91
20 | B20 | 1.07
21 | B21 | 1.05
